# Data as given in paper PMC11258540 (Molecular Cell, 2024).
# Numbering of substitutions follows the chain as printed. In names and notes the source's numbering stands. Like-named read-outs stand apart in the source and are kept apart here.
# B1: human PUS3 D118A, catalytically inactive variant (enzyme, UniProt Q9BZE2 1-481, looked up)
# chain: MAYNDTDRNQTEKLLKRVRELEQEVQRLKKEQAKNKEDSNIRENSAGAGKTKRAFDFSAHGRRHVALRIAYMGWGYQGFASQENTNNTIEEKLFEALTKTRLVESRQTSNYHRCGRTAKGVSAFGQVISLDLRSQFPRGRDSEDFNVKEEANAAAEEIRYTHILNRVLPPDIRILAWAPVEPSFSARFSCLERTYRYFFPRADLDIVTMDYAAQKYVGTHDFRNLCKMDVANGVINFQRTILSAQVQLVGQSPGEGRWQEPFQLCQFEVTGQAFLYHQVRCMMAILFLIGQGMEKPEIIDELLNIEKNPQKPQYSMAVEFPLVLYDCKFENVKWIYDQEAQEFNITHLQQLWANHAVKTHMLYSMLQGLDTVPVPCGIGPKMDGMTEWGNVKPSVIKQTSAFVEGVKMRTYKPLMDRPKCQGLESRIQHFVRRGRIEHPHLFHEEETKAKRDCNDTLEEENTNLETPTKRVCVDTEIKSII
# B2: human PUS3 H355T/T359A (enzyme, UniProt Q9BZE2 1-481, looked up)
# chain: B1 chain with A118D, H355T, T359A
# Columns and labels:
# SEC = target: the molecule itself; assay: SEC
# [1] = target: the molecule itself
Protein,stoichiometry N (SEC),stoichiometry N [1]
B1,2,
B2,,2
